Measured values: patent US20140348819A1, “Methods of Treating Cancer” (Dana-Farber Cancer Institute, Inc., priority 2011, published 2014)

Test system: six V600E BRAF melanoma cell lines
Test: Screening of recombinant RTK ligands for ability to confer resistance to BRAFi (PLX4720) or MEKi (PD184352) (Table 4)
Format: cell-based, human
Set-up: ability of recombinant RTK ligand to confer resistance / ability of recombinant RTK ligand to confer resistance (screening value): scale not given here
Summary of the method: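 Six V600E BRAF melanoma lines treated with PLX4720 or PD184352 after addition of 22 recombinant RTK ligands, scored for drug resistance. Activation of selected RTKs confirmed by western blotting and high-throughput tyrosine kinase phosphorylation profiling.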

B1: BDNF (protein, UniProt P23560 19-247, looked up)
Neurotrophic factor BDNF …: APMKEANIRGQGGLAYPGVRTHGTLESVNGPKAGSRGLTSLADTFEHVIEELLDEDQKVRPNEENNKDADLYTSRVMLSSQVPLEPPLLFLLEEYKNYLDAANMSMRVRRHSDPARRGELSVCDSISEWVTAADKKTAVDMSGGTVTVLEKVPVSKGQLKQYFYETKCNPMGYTKEGCRGIDKRHWNSQCRTTQSYVRALTMDSKKRIGWRFIRIDTSCVCTLTIKRGR
ability of recombinant RTK ligand to confer resistance (A2058, PD184352 - 1 uM, ligand 0.4 ng/ml): 0.99
ability of recombinant RTK ligand to confer resistance (A2058, PD184352 - 1 uM, ligand 1.6 ng/ml): 0.97
ability of recombinant RTK ligand to confer resistance (A2058, PD184352 - 1 uM, ligand 6.25 ng/ml): 0.94
ability of recombinant RTK ligand to confer resistance (A2058, PD184352 - 1 uM, ligand 25 ng/ml): 1.03
ability of recombinant RTK ligand to confer resistance (A2058, PD184352 - 1 uM, ligand 100 ng/ml): 1.10
ability of recombinant RTK ligand to confer resistance (A2058, PLX4720 - 2 uM, ligand 0.4 ng/ml): 1.00
ability of recombinant RTK ligand to confer resistance (A2058, PLX4720 - 2 uM, ligand 1.6 ng/ml): 0.95
ability of recombinant RTK ligand to confer resistance (A2058, PLX4720 - 2 uM, ligand 6.25 ng/ml): 0.95
ability of recombinant RTK ligand to confer resistance (A2058, PLX4720 - 2 uM, ligand 25 ng/ml): 0.98
ability of recombinant RTK ligand to confer resistance (A2058, PLX4720 - 2 uM, ligand 100 ng/ml): 1.15
ability of recombinant RTK ligand to confer resistance (C32, PD184352 - 1 uM, ligand 0.4 ng/ml): 1.03
ability of recombinant RTK ligand to confer resistance (C32, PD184352 - 1 uM, ligand 1.6 ng/ml): 1.01
ability of recombinant RTK ligand to confer resistance (C32, PD184352 - 1 uM, ligand 6.25 ng/ml): 1.06
ability of recombinant RTK ligand to confer resistance (C32, PD184352 - 1 uM, ligand 25 ng/ml): 1.03
ability of recombinant RTK ligand to confer resistance (C32, PD184352 - 1 uM, ligand 100 ng/ml): 0.95
ability of recombinant RTK ligand to confer resistance (C32, PLX4720 - 2 uM, ligand 0.4 ng/ml): 1.09
ability of recombinant RTK ligand to confer resistance (C32, PLX4720 - 2 uM, ligand 1.6 ng/ml): 0.99
ability of recombinant RTK ligand to confer resistance (C32, PLX4720 - 2 uM, ligand 6.25 ng/ml): 1.02
ability of recombinant RTK ligand to confer resistance (C32, PLX4720 - 2 uM, ligand 25 ng/ml): 1.01
ability of recombinant RTK ligand to confer resistance (C32, PLX4720 - 2 uM, ligand 100 ng/ml): 0.94
ability of recombinant RTK ligand to confer resistance (Colo 829, PD184352 - 1 uM, ligand 0.4 ng/ml): 1.03
ability of recombinant RTK ligand to confer resistance (Colo 829, PD184352 - 1 uM, ligand 1.6 ng/ml): 0.99
ability of recombinant RTK ligand to confer resistance (Colo 829, PD184352 - 1 uM, ligand 6.25 ng/ml): 0.98
ability of recombinant RTK ligand to confer resistance (Colo 829, PD184352 - 1 uM, ligand 25 ng/ml): 0.98
ability of recombinant RTK ligand to confer resistance (Colo 829, PD184352 - 1 uM, ligand 100 ng/ml): 0.93
ability of recombinant RTK ligand to confer resistance (Colo 829, PLX4720 - 2 uM, ligand 0.4 ng/ml): 1.02
ability of recombinant RTK ligand to confer resistance (Colo 829, PLX4720 - 2 uM, ligand 1.6 ng/ml): 1.00
ability of recombinant RTK ligand to confer resistance (Colo 829, PLX4720 - 2 uM, ligand 6.25 ng/ml): 0.96
ability of recombinant RTK ligand to confer resistance (Colo 829, PLX4720 - 2 uM, ligand 25 ng/ml): 0.95
ability of recombinant RTK ligand to confer resistance (Colo 829, PLX4720 - 2 uM, ligand 100 ng/ml): 0.94
ability of recombinant RTK ligand to confer resistance (G-361, PD184352 - 1 uM, ligand 0.4 ng/ml): 1.09
ability of recombinant RTK ligand to confer resistance (G-361, PD184352 - 1 uM, ligand 1.6 ng/ml): 0.95
ability of recombinant RTK ligand to confer resistance (G-361, PD184352 - 1 uM, ligand 6.25 ng/ml): 1.03
ability of recombinant RTK ligand to confer resistance (G-361, PD184352 - 1 uM, ligand 25 ng/ml): 0.91
ability of recombinant RTK ligand to confer resistance (G-361, PD184352 - 1 uM, ligand 100 ng/ml): 0.91
ability of recombinant RTK ligand to confer resistance (G-361, PLX4720 - 2 uM, ligand 0.4 ng/ml): 0.98
ability of recombinant RTK ligand to confer resistance (G-361, PLX4720 - 2 uM, ligand 1.6 ng/ml): 0.82
ability of recombinant RTK ligand to confer resistance (G-361, PLX4720 - 2 uM, ligand 6.25 ng/ml): 1.04
ability of recombinant RTK ligand to confer resistance (G-361, PLX4720 - 2 uM, ligand 25 ng/ml): 0.89
ability of recombinant RTK ligand to confer resistance (G-361, PLX4720 - 2 uM, ligand 100 ng/ml): 0.87
ability of recombinant RTK ligand to confer resistance (SK-MEL-5, PD184352 - 1 uM, ligand 0.4 ng/ml): 1.01
ability of recombinant RTK ligand to confer resistance (SK-MEL-5, PD184352 - 1 uM, ligand 1.6 ng/ml): 0.97
ability of recombinant RTK ligand to confer resistance (SK-MEL-5, PD184352 - 1 uM, ligand 6.25 ng/ml): 1.01
ability of recombinant RTK ligand to confer resistance (SK-MEL-5, PD184352 - 1 uM, ligand 25 ng/ml): 0.96
ability of recombinant RTK ligand to confer resistance (SK-MEL-5, PD184352 - 1 uM, ligand 100 ng/ml): 0.97
ability of recombinant RTK ligand to confer resistance (SK-MEL-5, PLX4720 - 2 uM, ligand 0.4 ng/ml): 1.07
ability of recombinant RTK ligand to confer resistance (SK-MEL-5, PLX4720 - 2 uM, ligand 1.6 ng/ml): 1.02
ability of recombinant RTK ligand to confer resistance (SK-MEL-5, PLX4720 - 2 uM, ligand 6.25 ng/ml): 1.07
ability of recombinant RTK ligand to confer resistance (SK-MEL-5, PLX4720 - 2 uM, ligand 25 ng/ml): 1.08
ability of recombinant RTK ligand to confer resistance (SK-MEL-5, PLX4720 - 2 uM, ligand 100 ng/ml): 1.04
ability of recombinant RTK ligand to confer resistance (SK-MEL-28, PD184352 - 1 uM, ligand 0.4 ng/ml): 1.04
ability of recombinant RTK ligand to confer resistance (SK-MEL-28, PD184352 - 1 uM, ligand 1.6 ng/ml): 1.04
ability of recombinant RTK ligand to confer resistance (SK-MEL-28, PD184352 - 1 uM, ligand 6.25 ng/ml): 0.91
ability of recombinant RTK ligand to confer resistance (SK-MEL-28, PD184352 - 1 uM, ligand 25 ng/ml): 0.97
ability of recombinant RTK ligand to confer resistance (SK-MEL-28, PD184352 - 1 uM, ligand 100 ng/ml): 1.07
ability of recombinant RTK ligand to confer resistance (SK-MEL-28, PLX4720 - 2 uM, ligand 0.4 ng/ml): 0.97
ability of recombinant RTK ligand to confer resistance (SK-MEL-28, PLX4720 - 2 uM, ligand 1.6 ng/ml): 1.12
ability of recombinant RTK ligand to confer resistance (SK-MEL-28, PLX4720 - 2 uM, ligand 6.25 ng/ml): 0.99
ability of recombinant RTK ligand to confer resistance (SK-MEL-28, PLX4720 - 2 uM, ligand 25 ng/ml): 1.08
ability of recombinant RTK ligand to confer resistance (SK-MEL-28, PLX4720 - 2 uM, ligand 100 ng/ml): 0.99
